In US20180282404A1 (Hoffmann-La Roche, published 2018):

T1: Human angiopoietin-2 (ANG-2) with His-tag (human, UniProt O15123 19-496)
T1 sequence: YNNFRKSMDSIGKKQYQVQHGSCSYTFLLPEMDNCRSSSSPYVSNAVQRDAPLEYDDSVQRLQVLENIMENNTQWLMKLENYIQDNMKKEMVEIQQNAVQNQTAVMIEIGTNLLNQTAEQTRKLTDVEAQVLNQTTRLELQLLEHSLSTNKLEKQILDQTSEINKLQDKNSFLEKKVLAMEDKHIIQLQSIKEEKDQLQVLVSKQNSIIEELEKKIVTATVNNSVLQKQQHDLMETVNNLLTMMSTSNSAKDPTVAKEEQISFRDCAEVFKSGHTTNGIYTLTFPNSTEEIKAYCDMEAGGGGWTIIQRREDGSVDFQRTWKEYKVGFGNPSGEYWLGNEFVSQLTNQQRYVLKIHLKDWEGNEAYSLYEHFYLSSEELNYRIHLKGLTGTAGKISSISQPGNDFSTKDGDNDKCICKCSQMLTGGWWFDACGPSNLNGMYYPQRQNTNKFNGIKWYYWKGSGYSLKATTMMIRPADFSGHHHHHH

T2: Human angiopoietin-1 (ANG-1) with His-tag (human, UniProt Q15389 16-498)
T2 construct: The assays used Angiopoietin-1-His, either R&D Systems #923-AN or in-house material; also called hANG-1; huAng-1
T2 sequence: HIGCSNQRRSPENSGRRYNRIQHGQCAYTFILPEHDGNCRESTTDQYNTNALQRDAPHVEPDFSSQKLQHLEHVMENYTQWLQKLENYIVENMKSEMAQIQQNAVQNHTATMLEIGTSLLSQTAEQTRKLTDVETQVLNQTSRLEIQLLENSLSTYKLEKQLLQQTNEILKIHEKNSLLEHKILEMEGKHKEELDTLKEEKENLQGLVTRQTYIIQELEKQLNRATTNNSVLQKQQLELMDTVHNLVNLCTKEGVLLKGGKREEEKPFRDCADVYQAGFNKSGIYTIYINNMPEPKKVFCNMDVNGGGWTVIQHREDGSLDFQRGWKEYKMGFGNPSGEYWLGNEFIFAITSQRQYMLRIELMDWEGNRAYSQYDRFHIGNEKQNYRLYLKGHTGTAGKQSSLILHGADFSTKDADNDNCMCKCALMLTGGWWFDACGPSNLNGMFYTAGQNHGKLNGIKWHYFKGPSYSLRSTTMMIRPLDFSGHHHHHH

B1: <ANG-2> Ang2i_LC06 (antibody, V domains shown)
VH: not shown
VL: QPGLTQPPSVSVAPGQTARITCGGNNIGSKSVHWYQQKPGQAPVLVVYDDSDRPSGIPERFSGSNSGNTATLTISRVEAGDEADYYCQVWDSSSDHYVFGTGTKVTVLG
notes: Only the variable domains are tied to this antibody
B2: <ANG-2> Ang2k_LC08 (antibody, V domains shown)
VH: QVQLVESGGGVVQPGGSLRLSCAASGFTFSSYGMHWVRQAPGKGLEWVAVISYDGSNKYYADSVKGRFTISRDNSKNTLYLQMNSLRAEDTAVYYCAKPTLDIYMGYYYGMDVWGQGTTVTVSS
VL: QPVLTQPPSASGAPGQRVTISCSGFASNIGSNSVNWYQQVPGTAPKLLIYNNDQRPSGVPDRFSGSRSGTSASLAISGLQSEDEADYYCAAWDDSLNGPVFGGGTKLTVLG
notes: as for B1
B3: <ANG-2> Ang2i_LC10 (antibody, V domains shown)
VH: not shown
VL: QPPSVSVAPGQTARITCGGNNIGSKSVHWYQQKPGQAPVLVVYDDSDRPSGIPERFSGSNSGNTATLTISRVEAGDEADYYCQVWDSSSDHWVFGGGTKLTVLG
B4: human anti-ANG-2 antibody <ANG-2> antibody Mab536 (antibody, V domains shown)
VH: EVQLVQSGGGVVQPGRSLRLSCAASGFTFSSYGMHWVRQAPGKGLEWVSYISSSGSTIYYADSVKGRFTISRDNAKNSLYLQMNSLRAEDTAVYYCARDLLDYDILTGYGYWGQGTLVTVSS
VL: not shown
B5: <ANG-2> Ang2i_LC07 (antibody, V domains shown)
VH: not shown
VL: QPVLTQSPSVSVAPGETARVACGGNFIGGKSVHWYQQKPGQAPVLVIYDDSERPSGIPERISGSNSGNTATLIITRAEAGDEADYHCQVWDSDSDQGVFGTGTKLTVLG
notes: as for B1

Tests used:
[1] = target: T1, Human angiopoietin-2 (ANG-2) with …; experiment: cell-based or functional assay
[2] = target: T2, Human angiopoietin-1 (ANG-1) with …; experiment: ANG-1 binding ELISA, human ANG-1 coated, antibody titrated
Experimental: (§1) The wells were washed three times with 300 μl PBST (0.2% Tween® 20) and blocked with 200 μl 2% BSA 0.1% Tween® 20 for 30 min at room temperature and subsequently washed three times with 300 μl PBST. […] The wells were washed three times with 300 μl PBST (0.2% Tween® 20) and bound antibody was detected with 100 μL/well 0.1 μg/ml F(ab′) POD (Biozol Cat. No. 206005) in 2% BSA 0.1% Tween® 20 as detection antibody for 1 h on a microtiterplate shaker at room temperature. Unbound detection antibody was washed away three times with 300 μL/well PBST and the bound detection antibody was detected by addition of 100 μL ABTS/well. Determination of absorbance was performed on a Tecan Fluor Spectrometer at a measurement wavelength of 405 nm (reference wavelength 492 nm).
(§2) Briefly, the ELISA-type assay is based on the immobilization of human wild-type Angiopoietin-1 or -2 in a microtiter plate.

[3] = target: T1, Human angiopoietin-2 (ANG-2) with …; experiment: ANG-2 binding ELISA, human ANG-2 coated, antibody titrated
Experimental: as §1, §2

[4] = target: T1, Human angiopoietin-2 (ANG-2) with …; experiment: Biacore SPR, antibody captured by anti-Fc, ANG-2-His in solution, 1:1 model, Experiment 1
Experimental: (§3) Biacore® T100 Evaluation Software version 1.1.1 was used for analysis of sensorgrams and for calculation of affinity data.
(§4) The affinity for this interaction is determined with the assumption of a 1:1 interaction. Details of this experiment can be found in the general methods section.

[5] = target: T1, Human angiopoietin-2 (ANG-2) with …; experiment: Biacore SPR, antibody captured by anti-Fc, ANG-2-His in solution, 1:1 model, Experiment 2
Experimental: as §3, §4

[6] = target: T1, Human angiopoietin-2 (ANG-2) with …; experiment: Biacore SPR, antibody captured by anti-Fc, ANG-2-His in solution, 1:1 model, average of Experiments 1 + 2
Experimental: as §3, §4

[7] = target: T1, Human angiopoietin-2 (ANG-2) with …; experiment: ANGPT2/Tie2 interaction ELISA: antibody titrated with 0.2 ug/ml huAngiopoietin-2 on coated Tie2 (printed as 'inhibitory concentrations')
Experimental: The interaction ELISA was performed on 384 well microtiter plates (MicroCoat, DE, Cat. No. 464718) at RT. After each incubation step plates were washed 3 times with PBST. ELISA plates were coated with 0.5 μg/ml Tie-2 protein (R&D Systems, UK, Cat. No. 313-TI) for at least 2 hours (h). Thereafter the wells were blocked with PBS supplemented with 0.2% Tween® 20 and 2% BSA (Roche Diagnostics GmbH, DE) for 1 h. […] After washing a mixture of 0.5 μg/ml biotinylated anti-Angiopoietin-2 clone BAM0981 (R&D Systems, UK) and 1:3000 diluted streptavidin HRP (Roche Diagnostics GmbH, DE, Cat. No. 11089153001) was added for 1 h. Thereafter the plates were washed 6 times with PBST. Plates were developed with freshly prepared ABTS reagent (Roche Diagnostics GmbH, DE, buffer #204 530 001, tablets #11 112 422 001) for 30 minutes at RT. Absorbance was measured at 405 nm.
(§5) 384-well Maxisorp® plates (Nunc) were coated with 0.5 μg/ml human Tie2 (R&D Systems, UK, Cat. No. 313-TI or in house produced material) for 2 h at room temperature and blocked with PBS supplemented with 0.2% Tween® 20 and 2% BSA (Roche Diagnostics GmbH, DE) for 1 h at room temperature under shaking. […] After washing a mixture of 0.5 μg/ml biotinylated anti-Angiopoietin-1/2 clone (R&D Systems #BAF923, BAM0981 R&D Systems, UK) and 1:3000 diluted streptavidin HRP (Roche Diagnostics GmbH, DE, Cat. No. 11089153001) was added for 1 h. Thereafter the plates were washed 6 times with PBST. Plates were developed with freshly prepared ABTS reagent (Roche Diagnostics GmbH, DE, buffer #204 530 001, tablets #11 112 422 001) for 30 minutes at RT. Absorbance was measured at 405 nm.

[8] = target: T2, Human angiopoietin-1 (ANG-1) with …; experiment: cell-based or functional assay
[9] = target: T2, Human angiopoietin-1 (ANG-1) with …; experiment: ANGPT1/Tie2 interaction ELISA: antibody titrated with 0.2 ug/ml huAngiopoietin-1 on coated Tie2 (printed as 'inhibitory concentrations')
Experimental: After each incubation step plates were washed 3 times with PBST. […] Thereafter the wells were blocked with PBS supplemented with 0.2% Tween® 20 and 2% BSA (Roche Diagnostics GmbH, DE) for 1 h. […] Thereafter the plates were washed 6 times with PBST. Plates were developed with freshly prepared ABTS reagent (Roche Diagnostics GmbH, DE, buffer #204 530 001, tablets #11 112 422 001) for 30 minutes at RT. Absorbance was measured at 405 nm.
as §5

[10] = target: T2, Human angiopoietin-1 (ANG-1) with …; experiment: SPR (Biacore): huAng-1 amine-coupled on a CM5 chip (appr. 20000 RU), BSA on the reference cell, antibody 100 nM in HBS-P injected for 3 min, 3 min dissociation
Experimental: The protein was injected for 20 min in sodium acetate pH 4.5 at 10 μg/ml at a flow rate of 5 μl/min. […] On the reference flow cell BSA was immobilized under the same conditions. The antibodies were diluted in HBS-P to 100 nM and injected for 3 min (association phase). After washing with running buffer for 3 min (dissociation phase), the surface was regenerated by injecting 10 mM sodium hydroxide for 1 min at 5 μl/min.

Binder | IC50 of ANGPT2 stimulated Tie2 phosphorylation (HEK293-Tie2 clone22, P-Tie2 sandwich ELISA) [1] | EC50 [2] | EC50 [3] | Kd [4] | koff [4] | Kd [5] | koff [5] | Kd [6] | IC50 [7] | IC50 of ANGPT1 stimulated Tie2 phosphorylation (HEK293-Tie2 clone22, P-Tie2 sandwich ELISA) [8] | IC50 [9] | binding result [10]
B1 | ~0.508 µg/mL | > 8 µg/mL | 0.084 µg/mL | 0.011 nM | 7.16e-05 s⁻¹ | 0.021 nM | 0.000114 s⁻¹ | 0.016 nM | 0.1 nM | – | – | –
B2 | ~0.499 µg/mL | 4.04 µg/mL | 0.105 µg/mL | 0.016 nM | 0.000161 s⁻¹ | 0.027 nM | 0.000228 s⁻¹ | 0.022 nM | 0.17 nM | ~0.391 µg/mL | 11 nM | –
B3 | – | – | – | – | – | – | – | – | – | – | – | no binding (tested: 100 nM)
B4 | – | 2.54 µg/mL | 0.133 µg/mL | 0.029 nM | 0.000144 s⁻¹ | 0.029 nM | 0.000125 s⁻¹ | 0.029 nM | 0.15 nM | – | – | –
B5 | – | > 8 µg/mL | 3.01 µg/mL | – | – | – | – | – | – | – | – | –
